Test results from PMC5640855, “ZIC2 Is Essential for Maintenance of Latency and Is a Target of an Immediate Early Protein during Kaposi's Sarcoma-Associated Herpesvirus Lytic Reactivation” (Journal of Virology, 2017).

Biological target: T1, GST-K-Rta (Kaposi's sarcoma-associated herpesvirus …, UniProt F5HCV3 1-691)
T1 construct: also called GST-tagged K-Rta; source: recombinant baculovirus-infected Sf9 cells, purified
T1 sequence: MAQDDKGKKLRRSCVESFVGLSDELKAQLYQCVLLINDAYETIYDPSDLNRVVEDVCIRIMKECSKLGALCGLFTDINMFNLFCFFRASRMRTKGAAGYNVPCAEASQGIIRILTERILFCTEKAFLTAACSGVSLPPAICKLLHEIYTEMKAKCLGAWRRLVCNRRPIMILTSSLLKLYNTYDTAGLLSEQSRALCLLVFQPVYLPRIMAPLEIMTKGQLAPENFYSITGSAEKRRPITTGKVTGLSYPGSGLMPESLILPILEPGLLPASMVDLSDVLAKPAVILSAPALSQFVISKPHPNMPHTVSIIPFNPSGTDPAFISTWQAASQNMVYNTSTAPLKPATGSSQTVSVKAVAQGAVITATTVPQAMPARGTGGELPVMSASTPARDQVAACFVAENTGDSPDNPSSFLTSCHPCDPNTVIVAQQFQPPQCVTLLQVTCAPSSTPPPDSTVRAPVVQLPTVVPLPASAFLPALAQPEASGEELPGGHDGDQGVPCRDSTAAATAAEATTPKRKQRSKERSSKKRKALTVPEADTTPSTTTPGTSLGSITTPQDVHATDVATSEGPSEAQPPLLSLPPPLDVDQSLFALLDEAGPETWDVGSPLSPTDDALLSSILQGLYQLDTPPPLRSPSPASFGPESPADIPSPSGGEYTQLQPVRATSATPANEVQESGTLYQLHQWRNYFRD
Test: pull-down
Conditions: both partners purified

B1: FLAG-tagged ZIC2 (natural protein, UniProt O95409 1-532, looked up)
chain: MLLDAGPQFPAIGVGSFARHHHHSAAAAAAAAAEMQDRELSLAAAQNGFVDSAAAHMGAFKLNPGAHELSPGQSSAFTSQGPGAYPGSAAAAAAAAALGPHAAHVGSYSGPPFNSTRDFLFRSRGFGDSAPGGGQHGLFGPGAGGLHHAHSDAQGHLLFPGLPEQHGPHGSQNVLNGQMRLGLPGEVFGRSEQYRQVASPRTDPYSAAQLHNQYGPMNMNMGMNMAAAAAHHHHHHHHHPGAFFRYMRQQCIKQELICKWIDPEQLSNPKKSCNKTFSTMHELVTHVSVEHVGGPEQSNHVCFWEECPREGKPFKAKYKLVNHIRVHTGEKPFPCPFPGCGKVFARSENLKIHKRTHTGEKPFQCEFEGCDRRFANSSDRKKHMHVHTSDKPYLCKMCDKSYTHPSSLRKHMKVHESSPQGSESSPAASSGYESSTPPGLVSPSAEPQSSSNLSPAAAAAAAAAAAAAAAVSAVHRGGGSGSGGAGGGSGGGSGSGGGGGGAGGGGGGSSGGGSGTAGGHSGLSSNFNEWYV
notes: ZIC2 (zinc finger protein of the cerebellum 2); cDNA cloned into pFastBac; also called FLAG-ZIC2; source: recombinant baculovirus-infected Sf9 cells, purified
B1: binds.
